US20240116985A1 (published 2024)
Read-outs that look alike come from different tables or passages of the source. Starred links: 1 amine or outer side, 2 acyl side, 3 side chain; linkers in the order of their positions; H or OH if unused. Positions of bridges follow the written chain, without caps; N, C: chain ends. Non-standard residues stand in square brackets, D forms with d. Primed or numbered codes have the meaning given here. *: point of attachment. PyrS2(3) = (S)-3-amino-1-((pent-4-en-1-yloxy)carbonyl)pyrrolidine-3-carboxylic acid, stapling residue, C=CCCCOC(=O)N1CC[C@@](N[*:1])(C(=O)[*:2])C1; PyrS2″ = (S)-3-amino-1-((pent-4-en-1-yloxy)carbonyl)pyrrolidine-3-carboxylic acid (stapling residue), C=CCCCOC(=O)N1CC[C@@](N[*:1])(C(=O)[*:2])C1; B5(4) = 2,2-bis(4-pentenyl)glycine = 2-amino-2-(pent-4-en-1-yl)hept-6-enoic acid (stitching residue), C=CCCCC(CCCC=C)(N[*:1])C(=O)[*:2]; B5(21) = 2-amino-2-(pent-4-en-1-yl)hept-6-enoic acid, bis(4-pentenyl)glycine (stitching residue), C=CCCCC(CCCC=C)(N[*:1])C(=O)[*:2]; B5(6) = 2-amino-2-(pent-4-en-1-yl)hept-6-enoic acid (bis(4-pentenyl)glycine), stitching residue, C=CCCCC(CCCC=C)(N[*:1])C(=O)[*:2]; PyrS2 = (S)-3-amino-1-((pent-4-en-1-yloxy)carbonyl)pyrrolidine-3-carboxylic acid, C=CCCCOC(=O)N1CC[C@@](N[*:1])(C(=O)[*:2])C1; PyrS3 = (S)-3-amino-1-((hex-5-en-1-yloxy)carbonyl)pyrrolidine-3-carboxylic acid, C=CCCCCOC(=O)N1CC[C@@](N[*:1])(C(=O)[*:2])C1; B5(13) = 2-amino-2-(pent-4-en-1-yl)hept-6-enoic acid (two alkene chains), C=CCCCC(CCCC=C)(N[*:1])C(=O)[*:2]; B5(3) = 2,2-bis(4-pentenyl)glycine (stitching residue), C=CCCCC(CCCC=C)(N[*:1])C(=O)[*:2]; B5″ = 2,2-bis(4-pentenyl)glycine, stitching residue, C=CCCCC(CCCC=C)(N[*:1])C(=O)[*:2]; Phe(2-CN) = N#Cc1ccccc1C[C@H](N)C(=O)O; Phe(2-Cl) = N[C@@H](Cc1ccccc1Cl)C(=O)O; Phe(4-F) = N[C@@H](Cc1ccc(F)cc1)C(=O)O; Phe(2-F) = N[C@@H](Cc1ccccc1F)C(=O)O; Phe(2-Me) = Cc1ccccc1C[C@H](N)C(=O)O; Bta = N[C@@H](Cc1csc2ccccc12)C(=O)O; αAllylPro = C=CC[C@@]1(C(=O)O)CCCN1; tBuAla = CC(C)(C)C[C@H](N)C(=O)O; 2Thi = N[C@@H](Cc1cccs1)C(=O)O; 3Thi = N[C@@H](Cc1ccsc1)C(=O)O; S8 = C=CCCCCCC[C@](C)(N)C(=O)O; Thr(ol) = C[C@@H](O)[C@H](N)CO; hLeu = CC(C)CC[C@H](N)C(=O)O; Alaol = C[C@@H](CO)N*; Ms = CS(=O)(=O)*

T1: B-cat-Halo (UniProt P35222 1-781)
T1 sequence (looked up): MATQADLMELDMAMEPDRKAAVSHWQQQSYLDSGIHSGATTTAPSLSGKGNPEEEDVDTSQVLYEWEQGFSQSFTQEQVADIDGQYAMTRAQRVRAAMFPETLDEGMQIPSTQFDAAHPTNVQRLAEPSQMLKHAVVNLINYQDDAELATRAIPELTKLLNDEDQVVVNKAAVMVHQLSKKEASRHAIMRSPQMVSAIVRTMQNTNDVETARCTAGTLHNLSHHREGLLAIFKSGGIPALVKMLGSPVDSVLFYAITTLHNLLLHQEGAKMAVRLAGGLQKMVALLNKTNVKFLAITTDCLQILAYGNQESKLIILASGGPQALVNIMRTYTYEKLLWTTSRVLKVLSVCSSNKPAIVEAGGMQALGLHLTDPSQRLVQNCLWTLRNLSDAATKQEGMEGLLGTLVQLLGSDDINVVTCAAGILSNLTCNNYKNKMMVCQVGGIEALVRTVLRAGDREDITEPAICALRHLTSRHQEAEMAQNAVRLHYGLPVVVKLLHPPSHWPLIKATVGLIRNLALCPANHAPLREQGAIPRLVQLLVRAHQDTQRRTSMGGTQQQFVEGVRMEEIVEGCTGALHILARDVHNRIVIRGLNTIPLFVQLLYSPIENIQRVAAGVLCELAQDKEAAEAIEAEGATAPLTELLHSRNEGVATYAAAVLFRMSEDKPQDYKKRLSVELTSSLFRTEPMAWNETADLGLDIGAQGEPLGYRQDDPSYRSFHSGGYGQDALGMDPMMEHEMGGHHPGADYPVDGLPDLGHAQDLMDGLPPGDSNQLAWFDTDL

T2: B-cat-Halo (UniProt P35222 1-781)
T2 sequence (looked up): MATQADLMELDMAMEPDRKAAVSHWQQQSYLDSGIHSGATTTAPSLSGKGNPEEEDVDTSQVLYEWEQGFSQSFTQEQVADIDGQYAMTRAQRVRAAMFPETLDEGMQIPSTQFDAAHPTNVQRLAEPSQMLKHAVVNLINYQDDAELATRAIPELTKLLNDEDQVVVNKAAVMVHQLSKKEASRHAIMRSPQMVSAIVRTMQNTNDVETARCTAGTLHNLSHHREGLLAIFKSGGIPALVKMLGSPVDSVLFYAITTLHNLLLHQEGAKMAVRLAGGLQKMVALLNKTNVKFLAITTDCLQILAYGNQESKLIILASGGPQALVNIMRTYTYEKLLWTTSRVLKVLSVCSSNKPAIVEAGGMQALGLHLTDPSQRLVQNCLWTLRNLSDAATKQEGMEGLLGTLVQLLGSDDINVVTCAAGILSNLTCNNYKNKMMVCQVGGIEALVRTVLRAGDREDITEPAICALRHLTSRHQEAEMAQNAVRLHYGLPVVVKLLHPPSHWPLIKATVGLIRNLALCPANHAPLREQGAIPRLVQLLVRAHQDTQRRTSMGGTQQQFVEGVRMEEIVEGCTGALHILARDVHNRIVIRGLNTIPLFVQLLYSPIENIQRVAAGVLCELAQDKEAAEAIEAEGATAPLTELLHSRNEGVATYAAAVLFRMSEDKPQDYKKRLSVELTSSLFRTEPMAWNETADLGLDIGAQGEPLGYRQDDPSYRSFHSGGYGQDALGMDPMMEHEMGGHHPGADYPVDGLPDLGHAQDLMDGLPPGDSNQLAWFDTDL

T3: full-length beta-Catenin (Uniprot ID P35222) (Homo sapiens (Human), UniProt P35222 1-781)
T3 construct: The assay protocol says full-length beta-Catenin (Uniprot ID P35222); tags are not described; also called bCat; B-Catenin
T3 sequence: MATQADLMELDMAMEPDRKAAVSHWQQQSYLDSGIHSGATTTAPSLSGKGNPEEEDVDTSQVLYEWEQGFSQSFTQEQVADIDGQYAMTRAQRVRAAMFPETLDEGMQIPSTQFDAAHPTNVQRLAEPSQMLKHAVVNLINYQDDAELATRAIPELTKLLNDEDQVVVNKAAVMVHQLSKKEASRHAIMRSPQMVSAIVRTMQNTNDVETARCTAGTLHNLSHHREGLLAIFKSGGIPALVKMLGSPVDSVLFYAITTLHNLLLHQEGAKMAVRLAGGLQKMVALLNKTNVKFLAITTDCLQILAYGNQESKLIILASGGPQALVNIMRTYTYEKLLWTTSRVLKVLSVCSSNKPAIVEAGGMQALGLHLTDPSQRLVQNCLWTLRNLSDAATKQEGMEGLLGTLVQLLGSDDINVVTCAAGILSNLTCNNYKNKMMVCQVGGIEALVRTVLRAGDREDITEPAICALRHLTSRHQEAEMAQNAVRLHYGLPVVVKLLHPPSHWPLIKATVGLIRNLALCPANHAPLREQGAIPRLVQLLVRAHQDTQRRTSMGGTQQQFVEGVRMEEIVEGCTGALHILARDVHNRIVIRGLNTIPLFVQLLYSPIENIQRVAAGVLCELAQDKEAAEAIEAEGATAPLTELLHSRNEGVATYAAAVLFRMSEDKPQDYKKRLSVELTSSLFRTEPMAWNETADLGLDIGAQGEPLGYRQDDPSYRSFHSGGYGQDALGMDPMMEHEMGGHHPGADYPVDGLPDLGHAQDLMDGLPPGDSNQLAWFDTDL


What was measured:
[1] = target: T1, B-cat-Halo; assay: cell-based or functional assay
[2] = target: T2, B-cat-Halo; assay: cell-based or functional assay; remark: listed apart in the source
[3] = target: T3, full-length beta-Catenin (Uniprot ID …); assay: fluorescence polarization competition: full-length beta-catenin + 5FAM-TCF4(10-53) probe, peptide titrated
Method: The plate was incubated protected from light for 60 minutes at 20° C. prior to read. Reads were performed on a CLARIOstar plate reader (BMG Labtech) in duplicate, and data were fitted to a 1:1 binding model with hill slope using an in-house script. All provided concentrations are final concentrations.

Row | NanoBRET Abs IC50 [1] | NanoBRET Abs IC50 [2] | Binder | further results
1 | 29.3 µM |  | Ac-[αAllylPro]D[tBuAla][B5(3)]DEAAFN[PyrS2][3Thi][Bta]-NH2 (staple 1-4, 4-11) [I-786] | 
2 |  | 27.8 µM | Ac-[αAllylPro]D[tBuAla][B5″]NDAAFN[PyrS2(3)][3Thi][Bta]Q-NH2 (staple 1-4, 4-11) [I-1206] | 
3 | 12.2 µM |  | Ac-[αAllylPro]D[tBuAla][B5(13)]DDAAFN[PyrS2][Phe(2-Me)][Bta]H-NH2 (staple 1-4, 4-11) [I-782] | 
4 |  |  | Ac-[αAllylPro]DI[B5(6)]DDAAFN[S8]F[Bta]H-NH2 (staple 1-4, 4-11; also: staple isomer composition: earlier-eluting HPLC peak, Staple isomer composition: earlier-eluting HPLC peak) [I-469] | EC50 [3]: 0.027 µM
5 |  |  | Ac-[αAllylPro]DI[B5(6)]DDAAFN[S8]F[Bta]Q-NH2 (staple 1-4, 4-11; also: staple isomer composition: earlier-eluting HPLC peak, Staple isomer composition: earlier-eluting HPLC peak) [I-467] | EC50 [3]: 0.044 µM
6 |  |  | Ac-[αAllylPro]DI[B5(6)]DDAAFN[S8]F[Bta]Q-NH2 (staple 1-4, 4-11; also: staple isomer composition: later-eluting HPLC peak, Staple isomer composition: later-eluting HPLC peak) [I-468] | EC50 [3]: 0.027 µM
7 |  | > 20 µM | Ac-[αAllylPro]D[tBuAla][B5(4)]DDAAFL[PyrS2″][Phe(2-Cl)][Bta]-Alaol (staple 1-4, 4-11) [I-1250] | 
8 | > 20 µM |  | Ac-[αAllylPro]D[tBuAla][B5(13)]DDAAFN[PyrS3][3Thi][Bta]H-NH2 (staple 1-4, 4-11) [I-775] | 
9 |  | 17.3 µM | Ac-[αAllylPro]N[tBuAla][B5(4)]DDAAFN[PyrS2″][3Thi][Bta]Q-NH2 (staple 1-4, 4-11) [I-1220] | 
10 |  |  | Ac-[αAllylPro]DA[B5(21)]DEAA[Phe(2-F)]N[S8]F[Bta]Q-NH2 (staple 1-4, 4-11, Stapled (stitched) peptide with non-natural residues) [I-453] | EC50 [3]: 1.55 µM
11 |  | 10 µM | Ac-[αAllylPro]D[tBuAla][B5″]DDAAFL[PyrS2(3)][Phe(2-CN)][Bta]Q-NH2 (staple 1-4, 4-11) [I-1203] | 
12 |  | 25.2 µM | Ac-[αAllylPro]D[tBuAla][B5(4)]DDAAFL[PyrS2″][Phe(2-Cl)][Bta][Thr(ol)] (staple 1-4, 4-11) [I-1249] | 
13 | 18.7 µM |  | Ac-[αAllylPro]D[tBuAla][B5(13)]DDAAFN[PyrS2][2Thi][Bta]H-NH2 (staple 1-4, 4-11) [I-779] | 
14 | 11.2 µM |  | Ac-[αAllylPro]D[tBuAla][B5(13)]DDAAFN[PyrS2][2Thi][Bta]Q-NH2 (staple 1-4, 4-11) [I-778] | 
15 |  |  | Ac-[αAllylPro]DA[B5(21)]DEAA[Phe(4-F)]N[S8]F[Bta]Q-NH2 (staple 1-4, 4-11, Stapled (stitched) peptide with non-natural residues) [I-455] | EC50 [3]: 0.0835 µM
16 | 21.6 µM |  | Ac-[αAllylPro]D[hLeu][B5(3)]DDAAFN[PyrS2][3Thi][Bta]H-NH2 (staple 1-4, 4-11) [I-788] | 
17 |  | > 20 µM | Ms-[αAllylPro]D[tBuAla][B5″]DDAAFN[PyrS2(3)][3Thi][Bta]Q-NH2 (staple 1-4, 4-11; not fully specified; printed as MeSO2-PL3-Asp-Npg-B5-Asp-Asp-Ala-Ala-Phe-Asn-PyrS2-3Thi-BztA-Gln-NH2) [I-1218] | 
